We go through 81 substances from the Human Domainome abundance scans (Beltran et al. 2025).

± gives the uncertainty stated by the source.

The nature of the series: abundance fitness (aPCA) (normalised: wild type 0, dead -1); higher = more abundant; growth selection in yeast, the domain comes from the species named. To be noted: Homo sapiens.
As for “BAG family molecular chaperone regulator 3 A13C, O95817”, the abundance fitness was -0.603 ± 0.46.
“BAG family molecular chaperone regulator 3 A13D, O95817” yielded an abundance fitness of 0.279 ± 0.07.
Take “BAG family molecular chaperone regulator 3 A13E, O95817”: the abundance fitness is -0.47 ± 0.28.
Next, “BAG family molecular chaperone regulator 3 A13G, O95817”: -0.412 ± 0.094; “BAG family molecular chaperone regulator 3 A13K, O95817”: 0.174 ± 0.17; “BAG family molecular chaperone regulator 3 A13L, O95817”: 0.127 ± 0.13.
To “BAG family molecular chaperone regulator 3 A13M, O95817” belongs -0.172 ± 0.31.
“BAG family molecular chaperone regulator 3 A13Q, O95817” returned an abundance fitness of -0.167 ± 0.086.
Next, “BAG family molecular chaperone regulator 3 A13R, O95817”: -0.316 ± 0.13; “BAG family molecular chaperone regulator 3 A13S, O95817”: -0.321 ± 0.2.
Next, “BAG family molecular chaperone regulator 3 A13T, O95817”: 0.169 ± 0.2; “BAG family molecular chaperone regulator 3 A13V, O95817”: 0.328 ± 0.087; “BAG family molecular chaperone regulator 3 A13W, O95817”: -0.774 ± 0.32.
To “BAG family molecular chaperone regulator 3 A13Y, O95817” belongs -0.047 ± 0.46; to “BAG family molecular chaperone regulator 3 D18C, O95817”, -0.009 ± 0.15.
“BAG family molecular chaperone regulator 3 D18E, O95817” gave an abundance fitness of -0.058 ± 0.074.
Substance “BAG family molecular chaperone regulator 3 D18F, O95817” gave an abundance fitness of -0.343 ± 0.23.
Next, “BAG family molecular chaperone regulator 3 D18H, O95817”: -0.394 ± 0.17.
To “BAG family molecular chaperone regulator 3 D18I, O95817” belongs -0.205 ± 0.27.
Next, “BAG family molecular chaperone regulator 3 D18K, O95817”: 0.22 ± 0.18; “BAG family molecular chaperone regulator 3 D18L, O95817”: -0.313 ± 0.12.
“BAG family molecular chaperone regulator 3 D18M, O95817” had an abundance fitness of -0.406 ± 0.26.
To “BAG family molecular chaperone regulator 3 D18N, O95817” belongs 0.148 ± 0.068; to “BAG family molecular chaperone regulator 3 D18P, O95817”, 0.065 ± 0.092; to “BAG family molecular chaperone regulator 3 D18Q, O95817”, 0.012 ± 0.19.
To “BAG family molecular chaperone regulator 3 D18R, O95817” belongs -0.116 ± 0.09; to “BAG family molecular chaperone regulator 3 D18S, O95817”, -0.047 ± 0.13.
“BAG family molecular chaperone regulator 3 D18T, O95817” displayed an abundance fitness of 0.03 ± 0.11.
To “BAG family molecular chaperone regulator 3 D18W, O95817” belongs -0.317 ± 0.16; to “BAG family molecular chaperone regulator 3 D18Y, O95817”, -0.641 ± 0.35.
Consider “BAG family molecular chaperone regulator 3 D20A, O95817”, for which the abundance fitness is -0.557 ± 0.15.
“BAG family molecular chaperone regulator 3 D20C, O95817” yielded an abundance fitness of -0.2 ± 0.11.
Next, “BAG family molecular chaperone regulator 3 D20E, O95817”: -0.018 ± 0.1.
For the substance “BAG family molecular chaperone regulator 3 D20F, O95817”, the abundance fitness is -0.09 ± 0.32.
Take “BAG family molecular chaperone regulator 3 D20G, O95817”: the abundance fitness was found to be 0.08 ± 0.06.
“BAG family molecular chaperone regulator 3 D20I, O95817” displayed an abundance fitness of -0.558 ± 0.37.
Regarding “BAG family molecular chaperone regulator 3 D20K, O95817”, the abundance fitness is -0.429 ± 0.23.
To “BAG family molecular chaperone regulator 3 D20L, O95817” belongs -0.495 ± 0.088; to “BAG family molecular chaperone regulator 3 D20M, O95817”, 0.365 ± 0.15; to “BAG family molecular chaperone regulator 3 D20N, O95817”, 0.044 ± 0.13.
Next, “BAG family molecular chaperone regulator 3 D20P, O95817”: -0.22 ± 0.19; “BAG family molecular chaperone regulator 3 D20Q, O95817”: -0.789 ± 0.33; “BAG family molecular chaperone regulator 3 D20R, O95817”: -0.228 ± 0.085.
“BAG family molecular chaperone regulator 3 D20S, O95817” showed an abundance fitness of 0.15 ± 0.087.
For “BAG family molecular chaperone regulator 3 D20V, O95817”, the abundance fitness is -0.241 ± 0.074.
To “BAG family molecular chaperone regulator 3 D20W, O95817” belongs -0.42 ± 0.15.
The substance “BAG family molecular chaperone regulator 3 D20Y, O95817” came in with an abundance fitness of -0.479 ± 0.3.
“BAG family molecular chaperone regulator 3 D31A, O95817” registered an abundance fitness of -0.22 ± 0.12.
Next, “BAG family molecular chaperone regulator 3 D31C, O95817”: -0.334 ± 0.074.
“BAG family molecular chaperone regulator 3 D31E, O95817”: the abundance fitness amounted to 0.166 ± 0.077.
Next, “BAG family molecular chaperone regulator 3 D31F, O95817”: -1.13 ± 0.34; “BAG family molecular chaperone regulator 3 D31G, O95817”: -0.491 ± 0.084; “BAG family molecular chaperone regulator 3 D31K, O95817”: -0.477 ± 0.28.
Next, “BAG family molecular chaperone regulator 3 D31L, O95817”: -0.732 ± 0.1; “BAG family molecular chaperone regulator 3 D31M, O95817”: -0.182 ± 0.15; “BAG family molecular chaperone regulator 3 D31N, O95817”: -0.813 ± 0.26.
“BAG family molecular chaperone regulator 3 D31P, O95817”: the abundance fitness was -0.886 ± 0.22.
Next, “BAG family molecular chaperone regulator 3 D31Q, O95817”: -0.557 ± 0.22; “BAG family molecular chaperone regulator 3 D31R, O95817”: -0.473 ± 0.071; “BAG family molecular chaperone regulator 3 D31S, O95817”: -0.67 ± 0.2.
Substance “BAG family molecular chaperone regulator 3 D31T, O95817” gave an abundance fitness of -0.56 ± 0.18.
In turn, “BAG family molecular chaperone regulator 3 D31V, O95817” registered an abundance fitness of -0.433 ± 0.12.
To “BAG family molecular chaperone regulator 3 D31W, O95817” belongs -0.33 ± 0.13; to “BAG family molecular chaperone regulator 3 D41A, O95817”, -0.82 ± 0.23; to “BAG family molecular chaperone regulator 3 D41C, O95817”, -0.641 ± 0.42.
To “BAG family molecular chaperone regulator 3 D41E, O95817” belongs -0.874 ± 0.2; to “BAG family molecular chaperone regulator 3 D41G, O95817”, -0.621 ± 0.14; to “BAG family molecular chaperone regulator 3 D41H, O95817”, -0.541 ± 0.095.
In turn, “BAG family molecular chaperone regulator 3 D41I, O95817” returned an abundance fitness of -0.622 ± 0.45.
Substance “BAG family molecular chaperone regulator 3 D41K, O95817” gave an abundance fitness of -1.05 ± 0.41.
The substance “BAG family molecular chaperone regulator 3 D41L, O95817” displayed an abundance fitness of -1.1 ± 0.17.
To “BAG family molecular chaperone regulator 3 D41M, O95817” belongs -1 ± 0.45; to “BAG family molecular chaperone regulator 3 D41N, O95817”, -0.664 ± 0.12; to “BAG family molecular chaperone regulator 3 D41P, O95817”, -0.65 ± 0.16.
Next, “BAG family molecular chaperone regulator 3 D41Q, O95817”: -0.364 ± 0.32; “BAG family molecular chaperone regulator 3 D41R, O95817”: -0.59 ± 0.084.
Regarding “BAG family molecular chaperone regulator 3 D41S, O95817”, the abundance fitness was -0.868 ± 0.27.
For the substance “BAG family molecular chaperone regulator 3 D41T, O95817”, the abundance fitness was -0.612 ± 0.23.
“BAG family molecular chaperone regulator 3 D41V, O95817”: the abundance fitness was -0.851 ± 0.099.
Substance “BAG family molecular chaperone regulator 3 D41W, O95817” returned an abundance fitness of -1.16 ± 0.44.
For “BAG family molecular chaperone regulator 3 D51A, O95817”, the abundance fitness is -0.682 ± 0.12.
